Experimental data taken from patent US7235648B1, “Yeast cells engineered to produce pheromone system protein surrogates, and uses therefor” (Cadus Technologies, Inc., priority 1993, dated 2007).
Ends that are not written are not given here.

T1: yeast Gβγ (Saccharomyces cerevisiae, UniProt P18851+P18852)
T1 construct: Endogenous Gβγ subunits will be provided by the yeast STE4 and STE18 loci; endogenous in cells; host or cells: S. cerevisiae gpa1 tester strains
T1 sequence (P18851 1-423): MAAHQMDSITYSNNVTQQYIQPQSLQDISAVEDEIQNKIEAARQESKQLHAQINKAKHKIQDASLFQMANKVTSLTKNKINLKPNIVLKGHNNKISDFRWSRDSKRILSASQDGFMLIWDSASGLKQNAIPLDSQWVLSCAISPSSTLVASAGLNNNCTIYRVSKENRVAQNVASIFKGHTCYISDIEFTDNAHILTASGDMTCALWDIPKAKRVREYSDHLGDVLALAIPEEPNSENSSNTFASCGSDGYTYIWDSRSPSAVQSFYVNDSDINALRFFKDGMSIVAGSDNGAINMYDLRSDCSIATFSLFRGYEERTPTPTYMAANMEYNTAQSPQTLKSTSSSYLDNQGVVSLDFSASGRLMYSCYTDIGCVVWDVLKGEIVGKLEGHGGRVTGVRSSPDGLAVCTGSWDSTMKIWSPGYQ
T1 sequence (P18852 1-107 limits assumed): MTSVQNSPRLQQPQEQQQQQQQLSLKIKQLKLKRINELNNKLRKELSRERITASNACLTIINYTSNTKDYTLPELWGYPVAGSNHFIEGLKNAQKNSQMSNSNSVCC

T2: STE2 receptor (Saccharomyces cerevisiae, UniProt D6VTK4)
T2 construct: endogenous in cells; host or cells: S. cerevisiae MATa CY588 / CY1455
T2 sequence (D6VTK4 1-431): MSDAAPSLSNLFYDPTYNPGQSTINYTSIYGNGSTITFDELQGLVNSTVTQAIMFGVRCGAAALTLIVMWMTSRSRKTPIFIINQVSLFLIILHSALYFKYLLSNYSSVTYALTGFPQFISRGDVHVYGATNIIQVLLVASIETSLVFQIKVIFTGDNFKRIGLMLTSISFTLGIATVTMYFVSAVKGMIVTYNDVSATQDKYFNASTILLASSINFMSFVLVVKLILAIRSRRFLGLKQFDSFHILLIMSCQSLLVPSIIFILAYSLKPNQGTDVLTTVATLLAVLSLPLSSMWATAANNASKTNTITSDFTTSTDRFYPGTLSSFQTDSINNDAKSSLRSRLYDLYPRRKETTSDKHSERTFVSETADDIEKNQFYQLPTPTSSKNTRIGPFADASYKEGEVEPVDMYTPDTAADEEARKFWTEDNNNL


Key:
yeast Gβγ = molecular target: T1, yeast Gβγ; experiment: Coupling of Gα subunits and hybrids to yeast Gβγ: complementation of gpa1 growth arrest phenotype and fus1-HIS3 transcription; format: cell-based
Source text: We have tested the hypothesis that there are switch region determinants involved in the association of Gα with Gβγ by constructing a series of hybrid Gα proteins encoding portions of GPA1 and GαS in different combinations (FIG. 11).
Preferably, levels of Gα and Gβγ subunits are balanced. For example, heterologous Gα subunits may be expressed from a low copy (CEN ARS) vector containing the endogenous yeast GPA1 promotor and the GPA1 3′ untranslated region. The minimum criterion, applied to a heterologous Gα subunit with respect to its ability to couple functionally to the yeast pheromone pathway, is that it complement a gpa1 genotype when expressed from the GPA1 promoter on low copy plasmids or from an integrated, single copy gene. In the work described in this application, all heterologous Gα subunits have been assayed in two biological systems.

STE2 receptor = molecular target: T2, STE2 receptor; experiment: Autocrine MATa yeast (CY588/CY1455) growth on histidine-deficient medium plus aminotriazole, fus1-HIS3 readout; format: cell-based; settings: for agonist activity on the STE2 receptor, α-Mid-5 library: CY1455, -His medium with 0.5 mM or 1 mM aminotriazole, starburst phenotype
Source text: A MATa strain designed for the expression of peptides in the context of MFα1 (i.e., using the MFα1 expression vector. Cadus 1215) has been constructed. The genotype of this strain, which we designate CY588, is MATa bar1 far1-1 fus1-HIS3 ste14::TRP1 ura3 trp1 leu2 his3. The bar1 mutation eliminates the strain's ability to produce a protease that degrades α-factor and that may degrade some peptides encoded by the cloned oligonucleotides; the far1 mutation abrogates the arrest of growth which normally follows stimulation of the pheromone response pathway; an integrated FUS1-HIS3 hybrid gene provides a selectable signal of activation of the pheromone response pathway; and, finally, the ste14 mutation lowers background of the FUS1-HIS3 readout. The enzymes responsible for processing of the MFα1 precursor in MATα cells are also expressed in MATa cells (Sprague and Thorner, in The Molecular and Cellular Biology of the Yeast Saccharomyces: Gene Expression, 1992. Cold Spring Harbor Press), therefore, CY588 cells should be able to secrete peptides encoded by oligonucleotides expressed from plasmid Cadus 1215.
Experiments were performed to test: 1. the ability of Cadus 1215 to function as a vector for the expression of peptides encoded by synthetic oligonucleotides; 2. the suitability of the oligonucleotides, as designed, to direct the secretion of peptides through the α-factor secretory pathway; 3. the capacity of CY588 to secrete those peptides; and 4. the ability of CY588 to respond to those peptides that stimulate the pheromone response pathway by growing on selective media. These experi-ments were performed using an oligonucleotide which encodes the 13 amino acid α-factor; i.e., the degenerate sequence (NNN)n in the oligonucleotide cloned into Cadus 1215 (see above) was specified (n=13) to encode this pheromone. CY588 was transformed with the resulting plasmid (Cadus 1219), and transformants selected on uracil-deficient medium were transferred to histidine-deficient medium supplemented with a range of concentrations of aminotriazole (an inhibitor of the HIS3 gene product that serves to reduce background growth). […] CY588 is competent for the secretion of a peptide encoded by the (NNN)n sequence of the synthetic oligonucleotide cloned into and expressed from Cadus 1215; and 2. CY588 can, in an autocrine fashion, respond to a secreted peptide which stimulates its pheromone response pathway, in this case by α-factor binding to STE2. Additional experiments were performed to test the utility of autocrine yeast strains in identifying agonists of the Ste2 receptor from among members of two semi-random α-factor libraries, α-Mid-5 and MFα-8. α-Mid-5 Library
To identity peptide members of the α-Mid-5 library that could act as agonists on the STE2 receptor. CY1455, a high transforming version of CY588, was electroporated to enhance uptake of α-Mid-5 DNA. Transformants were selected on uracil-deficient (-Ura) synthetic complete medium and were transferred to histidine-deficient (-His) synthetic complete medium supplemented with 0.5 mM or 1 mM aminotriazole.
Yeast able to grow on -His+aminotriazole medium include (1) yeast which are dependent on the expression of an α-factor variant agonist and (2) yeast which contain mutations that result in constitutive signalling along the pheromone pathway. […] Thus a recognizable formation (termed a “starburst”) results, consisting of a central colony, growing by virtue of autocrine stimulation of the pheromone pathway, surrounded by satellite colonies, growing by virtue of paracrine stimulation of the pheromone pathway by the agonist peptide as that ptpetide diffuses radially fromn the central, secreting colony.
In order to identify the peptide sequence responsible for this “starburst” phenomenon, yeast were transferred from the center of the “starburst” and streaks were made on -Ura medium to obtain single colonies. […]

| functional complementation of the growth arrest phenotype of gpa1 strains (yeast Gβγ) | Molecule | agonist activity on the STE2 receptor, α-Mid-5 library (STE2 receptor) | other results |
| --- | --- | --- | --- |
| functionally complement | GPA41-S: N-terminal 41 amino acids of GPA1 linked to Gαs sequence 42-394 | – | – |
| – | WHWLQLSAGQPMY [M4] | agonists | – |
| – | WHWLSLDAGQPMY [M2] | agonists | – |
| – | WHWLSLYPGQPMY [M8] | agonists | – |
| – | WHWLRLQSGQPMY [M5] | agonists | – |
| – | WHWLRLSAGQPMY [M6] | agonists | – |
| – | Trp His Trp Leu Gln Leu Lys Pro Gly Gln Pro Met Tyr (chain 1 WHWLQLKPGQPMY; chain 2 WHWLQLKPGQPMY) [α-factor, yeast tridecapeptide mating pheromone, reference compound] | – | ability to grow on histidine-deficient media supplemented with aminotriazole (autocrine response, α-factor binding to STE2) (STE2 receptor; CY588 transformed with Cadus 1219, range of aminotriazole concentrations): ability to grow on histidine-deficient media supplemented with aminotriazole |
| – | WHWLRLQPGQPMY [M9] | agonists | – |
| – | WHWLSLSPGQPMY [M1] | agonists | – |
| – | Trp His Tip Leu Thr Leu MetAla Gly Gin Pro Met Tyr (WHWLTLMAGQPMY) [M3] | agonists | – |
| – | WHWLSLVPGQPMY [M7] | agonists | – |
| do not | GPA41-Gαoa: first 41 amino acids of GPA1 fused to Gαoa (protein) MGCTVSTQTIGDESDPFLQNKRANDVIEQSLQLEKQRDKNEVKLLLLGAGESGKSTIVKQMKIIHEDGFSGEDVKQYKPVVYSNTIQSLAAIVRAMDTLGIEYGDKERKADAKMVCDVVSRMEDTEPFSAELLSAMMRLWGDSGIQECFNRSREYQLNDSAKYYLDSLDRIGAADYQPTEQDILRTRVKTTGIVETHFTFKNLHFRLFDVGGQRSERKKWIHCFEDVTAIIFCVALSGYDQVLHEDETTNRMHESLMLFDSICNNKFFIDTSIILFLNKKDLFGEKIKKSPLTICFPEYTGPNTYEDAAAYIQAQFESKNRSPNKEIYCHMTCATDTNNIQVVFDAVTDIIIANNLRGCGLY | – | – |
| do not | GPA41-Gαob: first 41 amino acids of GPA1 fused to Gαob (protein) MGCTVSTQTIGDESDPFLQNKRANDVIEQSLQLEKQRDKNEVKLLLLGAGESGKSTIVKQMKIIHEDGFSGEDVKQYKPVVYSNTIQSLAAIVRAMDTLGIEYGDKERKADAKMVCDVVSRMEDTEPFSAELLSAMMRLWGDSGIQECFNRSREYQLNDSAKYYLDSLDRIGAADYQPTEQDILRTRVKTTGIVETHFTFKNLHFRLFDVGGQRSERKKWIHCFEDVTAIIFCVALSGYDQVLHEDETTNRMHESLKLFDSICNNKWFTDTSIILFLNKKDIFEEKIKKSPLTICFPEYTGPSAFTEAVAYIQAQYESKNKSAHKEIYTHVTCATDTNNIQFVFDAVTDVIIAKNLRGCGLY | – | – |
| functionally complement | GPA141-Gαi3: first 41 amino acids of GPA1 fused to human Gαi3 (protein) MGCTVSTQTIGDESDPFLQNKRANDVIEQSLQLEKQRDKNEVKLLLLGAGESGKSTIVKQMKIIHE | – | – |
| functionally complement | GPA41-Gα16: first 41 amino acids of GPA1 fused to Gα16 (protein) MGCTVSTQTIGDESDPFLQNKRANDVIEQSLQLEKQRDKNELKLLLLGPGESGKSTFIKQMRIIHG | – | – |
